# Key:
# [1] = biological target: T1, human PD-1 (human, UniProt Q15116 25-288); experiment: flow cytometry on CHO/PD-1 cells pre-incubated with 10 ug/mL hIgG1 control, 2D3 at 0.2 ug/mL, detection with FITC goat anti-hIgG Fc
# T1 construct: whole, on cells; also called hPD-1; Programmed Death-1
# [2] = biological target: T2, human PD-L1 (on cells or in tissue) (human, UniProt Q9NZQ7 19-290); experiment: competition flow cytometry on ES-2 cells: unlabeled Ab titrated, then biotin-12A4 at 0.4 ug/mL, streptavidin-PE
# T2 construct: whole, on cells; also called hPD-L1; Programmed Death Ligand-1
# [3] = biological target: T1, human PD-1; experiment: flow cytometry on CHO/PD-1 cells pre-incubated with 10 ug/mL hIgG1 control, 4H1 at 0.2 ug/mL, detection with FITC goat anti-hIgG Fc
# [4] = biological target: T1, human PD-1; experiment: flow cytometry on CHO/PD-1 cells pre-incubated with hIgG control, FITC-labeled 17D8
# [5] = biological target: T1, human PD-1; experiment: flow cytometry on CHO/PD-1 cells pre-incubated with 10 ug/mL hIgG1 control, 7D3 at 0.2 ug/mL, detection with FITC goat anti-hIgG Fc
# [6] = biological target: T2, human PD-L1 (on cells or in tissue); experiment: flow cytometry on CHO/PD-L1 cells pre-incubated with 10 ug/mL hIgG1, FITC-10H10 at 0.27 ug/mL
# Excerpt: (§1) Different quantities of the various FITC-conjugated HuMAbs were used due to differences in binding efficiency following labeling, and the optimal amounts of these FITC-conjugated HuMAbs were previously determined by dose-titration analysis of binding to CHO/PD-L1 cells.
# [7] = biological target: T2, human PD-L1 (on cells or in tissue); experiment: flow cytometry competition on CHO/PD-L1 cells; unlabeled mAb at 10 ug/ml
# Excerpt: as §1
binder,measurement,setting,value
"anti-PD-1 HuMAb 2D3 (antibody, V domains shown, Human mAb) VH: QVQLVESGGDVVQPGRSLRLSCAASGLTFTNYGFHWVRQAPGKGLEWVAVIWYDGSKKYYADSVKGRFTISRDNSKNTLYLQMNNLRAEDTAVYYCATGDDYWGQGTLVTVSS VL: EIVLTQSPATLSLSPGERATLSCRASQSVSSYLAWYQQKPGQAPRLLIYDTSNRATGIPARFSGSGSGTDFTLTISSLEPEDFAVYYCQQRSNWPLTFGGGTKVEIK",binding result,[1],binds
"anti-PD-L1 HuMAb 3G10 (antibody, V domains shown, Human mAb; Used unconjugated and FITC-conjugated) VH: QVQLVQSGAEVKKPGASVKVSCKASGYTFTDYGFSWVRQAPGQGLEWMGWITAYNGNTNYAQKLQGRVTMTTDTSTSTVYMELRSLRSDDTAVYYCARDYFYGMDVWGQGTTVTVSS VL: EIVLTQSPATLSLSPGERATLSCRASQSVSSYLVWYQQKPGQAPRLLIYDASNRATGIPARFSGSGSGTDFTLTISSLEPEDFAVYYCQQRSNWPRTFGQGTKVEIK",IC50 (read off the curve),[2],~900 pM
"anti-PD-1 HuMAb 4H1 (antibody, V domains shown, Human mAb) VH: QVYLVESGGGVVQPGRSLRLSCAASGFTFSNYGMHWVRQAPGKGLEWVALIWYDGSNKYYADSVKGRFTISRDNSKNTLYLQMTSLRVEDTAVYYCASNVDHWGQGTLVTVSS VL: EIVLTQSPATLSLSPGERATLSCRASQSVSSYLAWYQQKPGQAPRLLIYDASNRATGIPARFSGSGSGTDFTLTISSLEPEDFAVYYCQQSSNWPRTFGQGTKVEIK",binding result,[3],binds
"anti-PD-1 HuMAb 17D8 (antibody, V domains shown, Human mAb; also called FITC-labeled 17D8) VH: QVQLVESGGDVVQPGGSLRLSCAASGVAFSNYGMHWVRQAPGKGLEWVAVIWYDGSNKYYADSVKGRFTISRDNSKNMLYLQMNSLRAEDTAMYYCARNDDYWGQGTLVTVSS VL: EIVLTQSPATLSLSPGERATLSCRASQSVSSYLAWYQQKPGQAPRLIIYDASNRATGIPARFSGSGSGTDFTLTISSLEPEDFAVYYCQQRSNWPLTFGGGTKVEIK",binding result,[4],binds
"anti-PD-1 HuMAb 7D3 (antibody, V domains shown, Human mAb) VH: QVQLVESGGGVVQPGRSLRLSCTTSGITFSSYGFHWVRQAPGKGLEWVAVIWYDGSKKYYADSVKGRFTLSRDDSKNTLYLQMNSLRAEDTAVYYCVTGDDYWGQGTLVTVSS VL: EIVLTQSPATLSLSPGERATLSCRASQSVSSYLAWYQQKPGQAPRLLIYDASNRATGIPARFSGSGSGTDFTLTISSLEPEDFAVYYCQQRSNWPLTFGGGTKVEIK",binding result,[5],binds
"anti-PD-L1 HuMAb 10A5 (antibody, V domains shown, Human mAb; Used unconjugated and FITC-conjugated) VH: QVQLVQSGAEVKKPGASVKVSCKASGYTFTSYDVHWVRQAPGQRLEWMGWLHADTGITKFSQKFQGRVTITRDTSASTAYMELSSLRSEDTAVYYCARERIQLWFDYWGQGTLVTVSS VL: DIQMTQSPSSLSASVGDRVTITCRASQGISSWLAWYQQKPEKAPKSLIYAASSLQSGVPSRFSGSGSGTDFTLTISSLQPEDFATYYCQQYNSYPYTFGQGTKLEIK",binding result,[2],binds
"anti-PD-L1 HuMAb 10H10 (antibody, V domains shown, Human mAb; Used unconjugated and FITC-conjugated) VH: EVQLVESGGGLVQPGRSLRLSCAVSGFTFDDYVVHWVRQAPGKGLEWVSGISGNSGNIGYADSVKGRFTISRDNAKNSLYLQMNSLRAEDTALYYCAVPFDYWGQGTLVTVSS VL: DIQMTQSPSSLSASVGDRVTITCRASQGISSWLAWYQQKPEKAPKSLIYAASSLQSGVPSRFSGSGSGTDFTLTISSLQPEDFATYYCQQYNSYPYTFGQGTKLEIK",binding result,[6],binds
"anti-PD-L1 HuMAb 1B12 (antibody, V domains shown, Human mAb) VH: QVQLVQSGAEVKKPGSSVKVSCKTSGDTFSSYAISWVRQAPGQGLEWMGGIIPIFGRAHYAQKFQGRVTITADESTSTAYMELSSLRSEDTAVYFCARKFHFVSGSPFGMDVWGQGTTVTVSS VL: not shown",IC50 (read off the curve),[2],~200 pM
"anti-PD-L1 HuMAb 7H1 (antibody, V domains shown, Human mAb) VH: QVQLVQSGAEVKKPGSSVKVSCKTSGGTFSSYAISWVRQAPGQGLEWMGGIIPIFGKAHYAQKFQGRVTITADESTTTAYMELSSLRSEDTAVYYCARKYDYVSGSPFGMDVWGQGTTVTVSS VL: not shown",binding result,[7],binds

# Reference: patent US20150125463A1 (Bristol-Myers Squibb, published 2015)
